# B1: PROTEIN X (ligand)
# chain: QIAAHVISEASSKTTSVLQWAEKGYYTMSNNLVTLENGKQLTVKRQGLYYIYAQVTFCSNREASSQAPFIASLCLKSPGRFERILLRAANTHSSAKPCGQQSIHLGGVFELQPGASVFVNVTDPSQVSHGTGFTSFGLLKLGSGSSGSSGSSGSGYIEDAPSDGKFYVRKDGAWVELPTASGPSSSSSSAWSHPQFEK
# notes: Three identical polypeptides; also called trivalent control protein; homotrimeric CD40L-RBD stabilized by RB69 trimerisation scaffold
# B2: PROTEIN-X2 (ligand)
# chain: QIAAHVISEASSKTTSVLQWAEKGYYTMSNNLVTLENGKQLTVKRQGLYYIYAQVTFCSNREASSQAPFIASLCLKSPGRFERILLRAANTHSSAKPCGQQSIHLGGVFELQPGASVFVNVTDPSQVSHGTGFTSFGLLKLGSSSSSSAWSHPQFEK
# What was measured:
# [1] = target: T1, human CD40-Fc (Enzo, catalogue number ALX-522-016-C050) (human, UniProt P25942 21-193); assay: QCM (Attana A100), human CD40-Fc immobilized, analyte at 1, 5 and 10 µg/ml
# T1 construct: Bought reagent; also called immobilized CD40-receptor; not shown: Fc part of the bought fusion protein, not described
# T1 sequence (P25942 21-193 limits assumed): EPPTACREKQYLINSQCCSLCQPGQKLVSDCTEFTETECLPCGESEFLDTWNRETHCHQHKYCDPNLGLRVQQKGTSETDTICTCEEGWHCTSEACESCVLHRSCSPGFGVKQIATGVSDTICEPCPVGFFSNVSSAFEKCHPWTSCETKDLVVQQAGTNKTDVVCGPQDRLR
# Procedure: The equilibrium binding constants (KD) of trivalent constructs of CD40L (e.g.: PROTEIN X) and hexavalent constructs of CD40L (e.g. PROTEIN A, PROTEIN B, and PROTEIN C) to CD40 was calculated based on kinetic binding data (kₒₙ and koff) determined with an automated biosensor system (Attana A100). The A100 allows to investigate molecular interactions in real-time based on the Quartz Crystal Microbalance (QCM) technique.
# For this purpose human CD40-Fc, purchased from Enzo (catalogue number: ALX-522-016-C050), was immobilized on the surface of a carboxyl-activated QCM-chip. Trimeric and hexameric CD40L-constructs were used as soluble analyte at concentrations of 1, 5, and 10 μg/ml. Binding (kₒₙ) and dissociation (koff) was analyzed.
# [2] = target: CD40 (native receptor on the surface of human cells) (human, UniProt P25942 21-277); assay: cell-based or functional assay
# Sequence of CD40 (native receptor on the surface of human cells) (P25942 21-277): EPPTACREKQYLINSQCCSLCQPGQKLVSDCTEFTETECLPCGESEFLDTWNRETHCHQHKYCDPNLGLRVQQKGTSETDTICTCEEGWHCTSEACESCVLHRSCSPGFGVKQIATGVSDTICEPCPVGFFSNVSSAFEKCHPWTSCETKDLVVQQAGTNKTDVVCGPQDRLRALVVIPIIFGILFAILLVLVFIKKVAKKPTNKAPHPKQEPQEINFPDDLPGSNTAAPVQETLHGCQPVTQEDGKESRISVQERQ
binder,measurement,setting,value
B1,Kd,[1],9.05 nM
same,"CD86 (MFI), monocytes 3 d, 10 ng/mL",[2],11 MFI
same,"CD86 (MFI), monocytes 3 d, 100 ng/mL",[2],11 MFI
same,"CD86 (MFI), monocytes 3 d, 1000 ng/mL",[2],12 MFI
same,"HLA-DR,DP (MFI), monocytes 3 d, 10 ng/mL",[2],26 MFI
same,"HLA-DR,DP (MFI), monocytes 3 d, 100 ng/mL",[2],26 MFI
same,"HLA-DR,DP (MFI), monocytes 3 d, 1000 ng/mL",[2],31 MFI
same,"Percentage of macrophages that are CD86+, 3 d, 10 ng/mL",[2],7%
same,"Percentage of macrophages that are CD86+, 3 d, 100 ng/mL",[2],8%
same,"Percentage of macrophages that are CD86+, 3 d, 1000 ng/mL",[2],16%
same,"Percentage of macrophages that are CD206+ and CD163+ (M2-like), 3 d, 10 ng/mL",[2],17%
same,"Percentage of macrophages that are CD206+ and CD163+ (M2-like), 3 d, 100 ng/mL",[2],21%
same,"Percentage of macrophages that are CD206+ and CD163+ (M2-like), 3 d, 1000 ng/mL",[2],10%
same,"Percentage of macrophages that are HLA-DR,DP+, 3 d, 10 ng/mL",[2],5%
same,"Percentage of macrophages that are HLA-DR,DP+, 3 d, 100 ng/mL",[2],6%
same,"Percentage of macrophages that are HLA-DR,DP+, 3 d, 1000 ng/mL",[2],12%
B2,"CD86 (MFI), monocytes 3 d, 10 ng/mL",[2],11 MFI
same,"CD86 (MFI), monocytes 3 d, 100 ng/mL",[2],12 MFI
same,"CD86 (MFI), monocytes 3 d, 1000 ng/mL",[2],11 MFI
same,"HLA-DR,DP (MFI), monocytes 3 d, 10 ng/mL",[2],26 MFI
same,"HLA-DR,DP (MFI), monocytes 3 d, 100 ng/mL",[2],29 MFI
same,"HLA-DR,DP (MFI), monocytes 3 d, 1000 ng/mL",[2],22 MFI
same,"Percentage of macrophages that are CD86+, 3 d, 10 ng/mL",[2],7%
same,"Percentage of macrophages that are CD86+, 3 d, 100 ng/mL",[2],7%
same,"Percentage of macrophages that are CD86+, 3 d, 1000 ng/mL",[2],8%
same,"Percentage of macrophages that are CD206+ and CD163+ (M2-like), 3 d, 10 ng/mL",[2],21%
same,"Percentage of macrophages that are CD206+ and CD163+ (M2-like), 3 d, 100 ng/mL",[2],23%
same,"Percentage of macrophages that are CD206+ and CD163+ (M2-like), 3 d, 1000 ng/mL",[2],21%
same,"Percentage of macrophages that are HLA-DR,DP+, 3 d, 10 ng/mL",[2],5%
same,"Percentage of macrophages that are HLA-DR,DP+, 3 d, 100 ng/mL",[2],7%
same,"Percentage of macrophages that are HLA-DR,DP+, 3 d, 1000 ng/mL",[2],2%

# Reference: patent US20180066036A1 (APOGENIX, published 2018)
